31 molecules from US20200199244A1 (published 2020) can be followed below.

“And” between values parts separate entries of the source, which are not always exact repeats. Equal values may be shown once.

B1: BMS3h-38-215 (other)
VH: EVQLLASGGGLVQPGGSLRLSCAASGFTFEEEEMIWVRQAPGKGLEWVSAISGLGWSTYYADSVKGRFTISRDNSKNTLYLQMNSLRAEDTAVYYCGKEPFRYDYWGQGTLVTVSS
B2: BMS3h-38-217 (other)
VH: EVQLLASGGGLVQPGGSLRLSCAASGFTFEEEEMIWVRQAPGKGLEWVSAISRRGYSTYYADSVKGRFTISRDNSKNTLYLQMNSLRAEDTAVYYCGKEPFRYDYWGQGTLVTVSS
B3: BMS3h-38-219 (other)
VH: EVQLLASGGGLVQPGGSLRLSCAASGFTFEEEEMIWVRQAPGKGLEWVSSISRSGGSTYYADSVKGRFTISRDNSKNTLYLQMNSLRAEDTAVYYCGKEPFRYDYWGQGTLVTVSS
B4: BMS3h-38-228 (other)
VH: EVQLLASGGGLVQPGGSLRLSCAASGFTFEEEEMIWVRQAPGKGLEWVSAISRNGFSTYYADSVKGRFTISRDNSKNTLYLQMNSLRAEDTAVYYCGKEPFRYDYWGQGTLVTVSS
B5: BMS3h-38-231 (other)
VH: EVQLLASGGGLVQPGGSLRLSCAASGFPFEEEEMIWVRQAPGKGLEWVSAISRQGWSTYYADSVKGRFTISRDNSKNTLYLQMNSLRAEDTAVYYCGKEPFRYDYWGQGTLVTVSS
B6: BMS3h-56-246 (other)
VH: EVQLLESGGGLVQPGGSLRLSCAASGFTFRDYEMWWVRQAPGKGLERVSAINPWGTLTYYADSVKGRFTISRDNSKNTLYLQMNSLRAEDTAVYYCAKLPFTFEDWGQGTLVTVSS
notes: domain antibody (dAb): single human VH domain
B7: BMS3h-56-253 (other)
VH: EVQLLESGGGLVQPGGSLRLSCAASGFTFRDYEMWWVRQAPGKGLERVSAINPAGGYTYYADSVKGRFTISRDNSKNTLYLQMNSLRAEDTAVYHCAKLPFTFEDWGQGTLVTVSS
notes: as for B6
B8: BMS3h-56-224 (other)
VH: EVQLLESGGGLVQPGGSLRLSCAASGFTFRDYEMWWVRQAPGKGLERVSAINPWGQLTYYADSVKGRFTISRDNSKNTLYLQMNSLRAEDTAVYYCAKLPFTFEDWGQGTLVTVSS
notes: as for B6
B9: BMS3h-56-204 (other)
VH: EVQLLESGGGLVQPGGSLRLSCAASGFTFRDYEMWWVRQAPGKGLERVSAINPQGTRTYYADSVKGRFTISRDNSKNTLYLQMNSLRAEDTAVYYCAKLPTYFKDWGQGTLVTVSS
notes: as for B6
B10: BMS3h-56-223 (other)
VH: EVQLLESGGGLVQPGGSLRLSCAASGFTFRDYEMWWVRQAPGRGLERVSAINPPGMLTYYADSVKGRFTISRDNSKNTLYLQMNSLRAEDTAVYYCAKLPFTFDDWGQGTLVTVSS
notes: as for B6
B11: BMS3h-56-205 (other)
VH: EVQLLESGGGLVQPGGSLRLSCAASGFTFRDYEMWWVRQAPGKGLERVSAINPQGTRTYYADSVKGRFTISRDNSKNTLYLQMNSLRAEDTAVYYCAKLPFYFSEWGQGTLVTVSS
notes: as for B6
B12: BMS3h-56-239 (other)
VH: EVQLLESGGGLVQPGGSLRLSCAASGFTFRDYEMWWVRQAPGKGLERVSAINPWGSLTYYADSVKGRFTISRDNSKNTLYLQMNSLRAEDTAVYYCAKLPFTFDDWGQGTLVTVSS
notes: as for B6
B13: BMS3h-56-248 (other)
VH: EVQLLESGGGLVQPGGSLRLSCAASGFTFRDYEMWWVRQAPGKGLERVSAINPYGNLTYYADSVKGRFTISRDNSKNTLYLQMNSLRAEDTAVYYCAKLPFTFDDWGQGTLVTVSS
notes: as for B6
B14: BMS3h-56-225 (other)
VH: EVQLLESGGGLVQPGGSLRLSCAASGFTFRDYEMWWVRQAPGKGLERVSAINPWGGYTYYADSVKGRFTISRDNSKNTLYLQMNSLRAEDTAVYYCAKLPFTFDDWGQGTLVTVSS
notes: as for B6
B15: BMS3h-56-232 (other)
VH: EVQLLESGGGLVQPGGSLRLSCAASGFTFRDYEMWWVRQAPGKGLERVSAINPWGSHTYYADSVKGRFTISRDNSKNTLYLQMNSLRAEDTAVYYCAKLPFTFDDWGQGTLVTVSS
notes: as for B6
B16: BMS3h-56-243 (other)
VH: EVQLLESGGGLVQPGGSLRLSCAASGFTFRDYEMWWVRQAPGKGLERVSAINPWGGFTYYADSVKGRFTISRDNSKNTLYLQMNSLRAEDTAVYYCAKLPFTFEDWGQGTLVTVSS
notes: as for B6
B17: BMS3h-56-244 (other)
VH: EVQLLESGGGLVQPGGSLRLSCAASGFTFRDYEMWWVRQAPGKGLERVSAINPWGGLTYYADSVKGRFTISRDNSKNTLYLQMNSLRAEDTAVYYCAKLPFTFDDWGQGTLVTVSS
notes: as for B6
B18: BMS3h-56-220 (other)
VH: EVQLLESGGGLVQPGGSLRLSCAASGFTFRDYEMWWVRQAPGKGLERVSAINPYGGLTYYADSVKGRFTISRDNSKNTLYLQMNSLRAEDTAVYYCAKLPFTFDDWGQGTLVTVSS
notes: as for B6
B19: BMS3h-56-207 (other)
VH: EVQLLESGGGLVQPGGSLRLSCAASGFTFRDYEMWWVRQAPGKGLERVSAINPQGTRTYYADSVKGRFTISRDNSKNTLYLQMNSLRAEDTAVYYCAKLPFPFSEWGQGTLVTVSS
notes: as for B6
B20: BMS3h-56-229 (other)
VH: EVQLLESGGGLVQPGGSLRLSCAASGFTFRDYEMWWVRQAPGKGLERVSAINPYGSLTYYADSVKGRFTISRDNSKNTLYLQMNSLRAEDTAVYYCAKLPFTFDDWGQGTLVTVSS
notes: as for B6
B21: BMS3h-37-205 (other)
VH: EVQLLESGGGLVQPGGSLRLSCAASGFTFEWYEMQWVRRAPGKGLEWVSAISGDGYRTYYADSVKGRFTISRDNSKNTLYLQMNSLRAEDTAVYYCAKELEYFDYWGRGTLVTVSS
notes: as for B6
B22: BMS3h-37-212 (other)
VH: EVQLLESGGGLVRPGGSLRLSCAASGFTFEWYEMQWVRRAPGKGLEWVSAISGDGYRTYYADSVKGRFTISRDNSKNTLYLQMNSLRAEDTAVYYCAKELEFFDYWGRGTLVTVSS
notes: as for B6
B23: BMS3h-37-213 (other)
VH: EVQLLESGGGLVQPGGSLRLSCAASGFTFEWYEMQWVRRAPGKGLEWVSAISGDGYRTYYADSVKGRFTISRDNSKNTLYLQMNSLRAEDTAVYYCAKELLFFDYRGRGTLVTVSS
notes: as for B6
B24: BMS3h-37-206 (other)
VH: EVQLLESGGGLVQPGGSLRLSCAASGFTFEWYEMQWVRRAPGKGLEWVSAISGDGYRTYYADSVKGRFTISRDNSKNTLYLQMNSLRAEDTAVYYCAKGLEYFDYWGRGTLVTVSS
notes: as for B6
B25: BMS3h-37-207 (other)
VH: EVQLLESGGGLVQPGGSLRLSCAASGFTFEWYEMQWVRRAPGKGLEWVSAISGDGYRTYYADSVKGRFTISRDNSKNTLYLQMNSLRAEDTAVYYCAKELAFFDYWGRGTLVTVSS
notes: as for B6
B26: BMS3h-38-238 (other)
VH: EVQLLASGGGLVQPGGSLRLSCAASGFTFEEEEMIWVRQAPGKGLEWVSAISRSGYSTYYADSVKGRFTISRDNSKNTLYLQMNSLRAEDTAVYYCGKEPFRYDYWGQGTLVTVSS
notes: as for B6
B27: BMS3h-38-204 (other)
VH: EVQLLASGGGLVQPGGSLRLSCAASGFTFPQEEMIWVRQAPGKGLEWVSAISGSGGSTYYADSVKGRFTISRDNSKNTLYLQMNSLRAEDTAVYYCGKEPFRYDYWGQGTLVTVSS
notes: as for B6
B28: BMS3h-38-205 (other)
VH: EVQLLASGGGLVQPGGSLRLSCAASGFTFFAAEMIWVRQAPGKGLEWVSAISGSGGSTYYADSVKGRFTISRDNSKNTLYLQMNSLRAEDTAVYYCGKEPFRYDYWGQGTLVTVSS
notes: as for B6
B29: BMS3h-38-201 (other)
VH: EVQLLASGGGLVQPGGSLRLSCAASGFTFEEEEMIWVRQAPGKGLEWVSAISGSGGSTYYADSVKGRFTISRDNSKNTLYLQMNSLRAEDTAVYYCGKEPFYYDYWGQGTLVTVSS
notes: as for B6
B30: BMS3h-38-202 (other)
VH: EVQLLASGGGLVQPGGSLRLSCAASGFTFEEEEMIWVRQAPGKGLEWVSAISGSGGSTYYADSVKGRFTISRDNSKNTLYLQMNSLRAEDTAVYYCGKEPFYFDYWGQGTLVTVSS
notes: as for B6
B31: BMS3h-38-203 (other)
VH: EVQLLASGGGLVQPGGSLRLSCAASGFTFEEKEMIWVRQAPGKGLEWVSAISGSGGSTYYADSVKGRFTISRDNSKNTLYLQMNSLRAEDTAVYYCGKEPFFYDYWGQGTLVTVSS
notes: as for B6

T1 sequence (P25942 21-193 limits assumed): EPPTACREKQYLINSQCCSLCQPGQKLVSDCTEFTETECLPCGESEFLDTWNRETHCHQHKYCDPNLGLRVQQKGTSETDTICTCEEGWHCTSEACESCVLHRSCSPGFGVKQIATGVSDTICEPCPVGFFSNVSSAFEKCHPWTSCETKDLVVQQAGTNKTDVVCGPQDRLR

The first experiment deals with human CD40 (human, UniProt P25942 21-277). Description: cell-based or functional assay.
human CD40, sequence (P25942 21-277 limits assumed): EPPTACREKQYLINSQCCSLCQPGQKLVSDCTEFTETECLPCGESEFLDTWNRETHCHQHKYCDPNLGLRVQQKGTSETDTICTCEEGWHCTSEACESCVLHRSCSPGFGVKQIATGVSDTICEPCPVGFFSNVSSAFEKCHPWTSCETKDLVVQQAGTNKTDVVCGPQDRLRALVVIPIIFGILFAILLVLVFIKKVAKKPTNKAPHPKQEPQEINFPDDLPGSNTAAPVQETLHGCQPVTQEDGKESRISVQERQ
Regarding B1, the “CHO-hCD40L-driven DC Activation IL-12 EC50” value was 6 nM, the “CHO-hCD40L-driven Human B Cell Proliferation EC50” value was determined as 65 nM, the “T-B cell MLR EC50” value came to 163 nM and the “hIZCD40L-driven Human B Cell Proliferation EC50” value is 1 nM.
The corresponding values for B2 are 1.7 nM, 34 nM, 74 nM and 0.8 nM.
For B3, the “CHO-hCD40L-driven DC Activation IL-12 EC50” value came out at 9 nM, the “CHO-hCD40L-driven Human B Cell Proliferation EC50” value is 93 nM, the “T-B cell MLR EC50” value came out at 164 nM and the “hIZCD40L-driven Human B Cell Proliferation EC50” value came to 2 nM.
For the molecule B4, the “hIZCD40L-driven Human B Cell Proliferation EC50” value is 0.7 nM.
Turning to B5, the “hIZCD40L-driven Human B Cell Proliferation EC50” value worked out at 0.66 nM.

The next experiment has as its target T1, human CD40 (BMS, CY24FEB06-01) (human, UniProt P25942 21-193).
T1 construct: Soluble human CD40 reagent of the ELISA RBA
Description: ELISA RBA, competition with IZ-CD40L for soluble human CD40.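 Further: Neutravidin-coated 384-well plates, dAb–human CD40 complex incubated 2 h at room temperature, read-out as absorbance at 450 nm.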 Background: In an ELISA, binding on a coated surface is turned into a signal by an enzyme label.
As a reminder, the EC50 is the concentration at which the effect is half-maximal. B6 registered a concentration giving a half-maximal response (EC50) of 11.1 nM.
The molecule B7 came in with an EC50 of 1.3 nM.
In the case of B8, the EC50 is 2.1 nM and 4.2 nM.
Take B9: a half-maximal effect (EC50) was put at 4.5 nM.
Same read-out and setting: for B10 the value was 5 nM; for B11, 9 nM.
The molecule B12 came in with an EC50 of 2.7 nM.
The molecule B13 displayed a concentration for a half-maximal effect (EC50) of 0.7 nM.
B14 registered a concentration for a half-maximal effect (EC50) of 2.9 nM.
Same read-out and setting: under B15 stands 2.8 nM and 3.7 nM.
Molecule B16 registered an EC50 of 9.9 nM.
The molecule B17 displayed an EC50 of 6 nM.
Take B18: the EC50 came to 4.2 nM.
In turn, B19 had an EC50 of 7.3 nM.
Turning to B20, the response was half-maximal at 4.1 nM (EC50).
B21: the EC50 is 3.1 nM and 4.4 nM.
As for B22, the midpoint of the response, the EC50, lay at 24 nM.
Consider B23, for which the EC50 was 16 nM.
As to B24, the EC50 was 3.2 nM and 8.9 nM.
In the case of B25, the EC50 was 2.5 nM and 6.6 nM.
Regarding B26, it took 5.1 nM to reach a half-maximal effect (EC50).
Same read-out and setting: for B27 the value was 4.8 nM; for B28, 4.5 nM and 11.1 nM.
In turn, B29 had an EC50 of 3.4 nM.
In turn, B30 displayed a half-maximal effective concentration (EC50) of 4.8 nM.
Same read-out and setting: for B31 the value was 5.5 nM.
